Here are results for one molecule from paper PMC3020944, “Structure-Activity Relationship of Cinnamaldehyde Analogs as Inhibitors of AI-2 Based Quorum Sensing and Their Effect on Virulence of Vibrio spp”.

This data set deals with T1, GST-LuxR (Vibrio harveyi, UniProt P21308 1-205).
T1 sequence: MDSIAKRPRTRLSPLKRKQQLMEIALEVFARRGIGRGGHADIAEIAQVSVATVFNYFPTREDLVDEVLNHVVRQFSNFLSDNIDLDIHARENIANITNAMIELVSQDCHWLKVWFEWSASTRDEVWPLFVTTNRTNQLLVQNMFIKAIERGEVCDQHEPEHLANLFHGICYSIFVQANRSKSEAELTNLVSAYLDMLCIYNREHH
In words: fluorescence anisotropy; no inhibitor; Kd value only in Fig. 2B; 30°C; fluorescence polarisation, excitation 480 nm, emission 535 nm; binding buffer, salt and pH not given (as in ref 12); duplex annealed in NaCl-Tris-EDTA. The settings on record: protein: recombinant; tags: GST; chain copies: 2; label: 5' fluorescein on strand 1; blunt. (In general: Polarisation of emitted light reports the rotation of a fluorescent probe.)

B1: V. harveyi consensus LuxR binding sequence (dsDNA)
DNA 1: TATTGATAAATTTATCAATAA
DNA 2: TTATTGATAAATTTATCAATA
On to B1, for which the binding result is listed as “binds”.
